In the assay the target is Bacteriophage P23-77 small major capsid protein VP16, recombinant (bacteriophage P23-77). As to the kind of experiment: SEC.

As for “Bacteriophage P23-77 small major capsid protein VP16, recombinant (natural protein)”, the stoichiometry N amounted to 2.

The values above are taken from paper PMC3919167.
